Results reported in paper PMC12102759.

B1: KIAA1671 peptide 600-615 (Uncharacterized protein KIAA1671), 16-mer library wild type / MDM2 SWIB (MDM2 SWIB/MDM2 domain, residues 17-125) (parent)
chain 1: TPEDDRSFQTVWATVF
chain 2: SQIPASEQETLVRPKPLLLKLLKSVGAQKDTYTMKEVLFYLGQYIMTKRLYDEKQQHIVYCSNDLLGDLFGVPSFSVKEHRKIYTMIYRNLVVVNQQESSDSGTSVSEN

Variants of: B1
Assay: proteomic peptide phage display deep mutational scan (ProP-PD DMS): M13 P8 16-mer library selected against immobilised GST-tagged bait for four days (rounds), NGS of the eluted pools per day and pseudo-replica
Details: with MDM2 SWIB (MDM2 SWIB/MDM2 domain, residues 17-125); bait immobilised on MaxiSorp plates (10 µg), library pre-cleared on GST, 2 h binding at 4 °C, five washes; one round per day, days 1-4; value from days 2 and 3; keep out of graded; scale: average fractional NGS count over selection days 2 and 3

screen value | Variant
0 | chain 1 F16A
0.000197 | chain 1 F16S
1.6e-05 | chain 1 F16W
0 | chain 1 F16G
4.28e-05 | chain 1 F16M
5.77e-05 | chain 1 F16I
0 | chain 1 F16Y
0 | chain 1 F16E
0.0002 | chain 1 R6W
6.31e-05 | chain 1 R6E
0.000397 | chain 1 R6H
0.00021 | chain 1 R6S
0.000243 | chain 1 R6K
4.17e-05 | chain 1 R6T
0.000155 | chain 1 R6Q
0.000232 | chain 1 R6M
9.01e-05 | chain 1 R6G
0.000264 | chain 1 R6L
0.000693 | chain 1 R6Y
0.000114 | chain 1 R6I
0.000483 | chain 1 R6F
0.000461 | chain 1 R6V
0.000216 | chain 1 V11F
0.0015 | chain 1 V11H
0 | chain 1 V11A

screen value | Variant
0.00061 | chain 1 V11Q
0.000226 | chain 1 V11M
0.000339 | chain 1 V11L
0.000214 | chain 1 V11Y
0 | chain 1 V11E
0 | chain 1 V11N
0.00157 | chain 1 V11I
0.000681 | chain 1 Q9M
8.49e-05 | chain 1 Q9E
0.000111 | chain 1 Q9G
0 | chain 1 Q9N
0 | chain 1 Q9D
8.1e-05 | chain 1 Q9S
0.000133 | chain 1 Q9I
5.33e-05 | chain 1 Q9F
0.000186 | chain 1 Q9Y
0.00104 | chain 1 Q9L
0.000111 | chain 1 Q9A
0.000517 | chain 1 S7W
6.52e-05 | chain 1 S7T
6.18e-05 | chain 1 S7K
0.000105 | chain 1 S7L
0.000194 | chain 1 S7Q
3.36e-05 | chain 1 S7F
5.55e-05 | chain 1 A13Q

screen value | Variant
4.31e-05 | chain 1 A13V
0.000391 | chain 1 A13W
0.000146 | chain 1 A13M
0.000173 | chain 1 A13N
0.000104 | chain 1 A13I
5.94e-05 | chain 1 A13R
0.00011 | chain 1 A13T
1.83e-05 | chain 1 A13D
0 | chain 1 A13P
9.44e-05 | chain 1 A13L
0.000202 | chain 1 D5P
6.55e-05 | chain 1 D5H
0.000189 | chain 1 D5M
0.000477 | chain 1 D5L
0.000323 | chain 1 D5A
2.45e-05 | chain 1 D5Q
3.53e-05 | chain 1 D5F
0.000664 | chain 1 D5W
0.000201 | chain 1 D5T
0.00089 | chain 1 D5S
8.89e-05 | chain 1 D5Y
0.000143 | chain 1 D5V
0.00012 | chain 1 F8A
0.000128 | chain 1 F8M
0.000346 | chain 1 F8W

screen value | Variant
1.9e-05 | chain 1 F8Y
7.93e-05 | chain 1 F8P
0 | chain 1 F8K
0.000113 | chain 1 F8N
0.00011 | chain 1 D4A
0.00033 | chain 1 D4T
0.000505 | chain 1 D4Q
4.28e-05 | chain 1 D4M
8.68e-05 | chain 1 D4I
0.000914 | chain 1 D4G
0.000107 | chain 1 D4P
1.9e-05 | chain 1 D4N
0.0004 | chain 1 D4S
0.000129 | chain 1 D4V
2.12e-05 | chain 1 D4Y
0.00068 | chain 1 E3Y
0.000648 | chain 1 E3R
1.83e-05 | chain 1 E3F
0.00018 | chain 1 E3A
0.00284 | chain 1 E3V
0.000218 | chain 1 E3W
4.56e-05 | chain 1 E3Q
0.000185 | chain 1 E3L
0.000765 | chain 1 E3H
0.000371 | chain 1 E3T

screen value | Variant
0.000166 | chain 1 E3I
4.32e-05 | chain 1 E3N
0.000295 | chain 1 T10W
0.000471 | chain 1 T10S
0.000165 | chain 1 T10A
1.9e-05 | chain 1 T10D
0.000209 | chain 1 T10I
0.000116 | chain 1 T10Q
0.000113 | chain 1 T10H
6.08e-05 | chain 1 T10L
0.000114 | chain 1 T10F
2.82e-05 | chain 1 V15S
0 | chain 1 V15G
0.000191 | chain 1 V15A
0.000104 | chain 1 V15F
0 | chain 1 V15N
0 | chain 1 V15P
0.000109 | chain 1 V15W
8.76e-05 | chain 1 V15M
1.9e-05 | chain 1 T14V
0.000268 | chain 1 T14E
0.000108 | chain 1 T14Y
3.81e-05 | chain 1 T14I
3.86e-05 | chain 1 T14Q
4.28e-05 | chain 1 T14H
